From publication PMC10397247

What was measured:
Assay in all cases: two-hybrid library CCNG1;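 note: natural log of median RNA to DNA barcode read ratio; higher means stronger binding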
4H797-bA = biological target: T1, 4H797-bA
T1 chain: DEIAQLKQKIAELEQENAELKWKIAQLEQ

4H607-bA = biological target: T2, 4H607-bA
T2 chain: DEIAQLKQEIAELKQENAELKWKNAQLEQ

4H3782-bA = biological target: T3, 4H3782-bA
T3 chain: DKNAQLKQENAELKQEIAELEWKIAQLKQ

4H3843-bA = biological target: T4, 4H3843-bA
T4 chain: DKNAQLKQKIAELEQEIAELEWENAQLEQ

4H4001-bA = biological target: T5, 4H4001-bA
T5 chain: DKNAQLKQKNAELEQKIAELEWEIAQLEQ

4H967-bA = biological target: T6, 4H967-bA
T6 chain: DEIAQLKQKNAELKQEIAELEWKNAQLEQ

4H883-bA = biological target: T7, 4H883-bA
T7 chain: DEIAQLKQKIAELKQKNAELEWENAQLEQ

4H687-bA = biological target: T8, 4H687-bA
T8 chain: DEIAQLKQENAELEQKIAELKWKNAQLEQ

4H370-bA = biological target: T9, 4H370-bA
T9 chain: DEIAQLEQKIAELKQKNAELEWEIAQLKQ

4H462-bA = biological target: T10, 4H462-bA
T10 chain: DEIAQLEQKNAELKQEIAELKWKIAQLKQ

4H568-bA = biological target: T11, 4H568-bA
T11 chain: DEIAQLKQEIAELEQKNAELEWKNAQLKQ

4H918-bA = biological target: T12, 4H918-bA
T12 chain: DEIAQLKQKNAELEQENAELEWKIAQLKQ

4H953-bA = biological target: T13, 4H953-bA
T13 chain: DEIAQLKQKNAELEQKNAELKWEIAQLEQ

4H72-bA = biological target: T14, 4H72-bA
T14 chain: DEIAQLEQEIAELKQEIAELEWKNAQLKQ

interaction score (4H797-bA): -0.315
interaction score (4H607-bA): -0.647
interaction score (4H3782-bA): 0.864
interaction score (4H3843-bA): -0.261
interaction score (4H4001-bA): -0.375
interaction score (4H967-bA): -0.217
interaction score (4H883-bA): -0.545
interaction score (4H687-bA): -0.346
interaction score (4H370-bA): 1.12
interaction score (4H462-bA): 1.39
interaction score (4H568-bA): 1.81
interaction score (4H918-bA): -0.552
interaction score (4H953-bA): -1.39
interaction score (4H72-bA): 0.634
Binder: DEIAQLEQKIAELKQKNAELEWEIAQLKQ [4H370-bA]
